In US20180155451A1 (published 2018):

T1: FcγRIIb extracellular domain with C-terminal His tag (human, UniProt P31994 43-217)
T1 construct: extracellular domain; expressed in FreeStyle293 cells; analyte in the Biacore assay; also called FcgRIIb; 2b; not shown: His tag at the C terminus
T1 sequence (looked up): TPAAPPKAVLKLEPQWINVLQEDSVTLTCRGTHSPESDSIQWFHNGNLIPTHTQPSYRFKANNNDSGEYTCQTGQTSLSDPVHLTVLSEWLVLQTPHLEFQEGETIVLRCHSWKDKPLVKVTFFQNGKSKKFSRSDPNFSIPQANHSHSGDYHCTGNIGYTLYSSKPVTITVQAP

B1: GpH7-A5/GpH7-B3 variant L235_20W/GpL16-k0 (antibody, human IgG1, kappa)
heavy 1: not shown
heavy 2: not shown
light: DIVMTQSPLSLPVTPGEPASISCQASESLVHSNRNTYLHWYLQKPGQSPQLLIYKVSNRFSGVPDRFSGSGSGTDFTLKISRVEAEDVGVYYCSQNTHVPPTFGQGTKVEIERTVAAPSVFIFPPSDEQLKSGTASVVCLLNNFYPREAKVQWKVDNALQSGNSQESVTEQDSKDSTYSLSSTLTLSKADYEKHKVYACEVTHQGLSSPVTKSFNRGEC
notes: heterodimerized; mutation in the B3 H chain only; also called He Ab L235_20W
B2: GpH7-B3 variant K334_01G/GpL16-k0 (antibody, human IgG1, kappa)
heavy: not shown
light: B1 light
notes: homodimerized IgG1, mutation in both H chains; also called Ho Ab
B3: GpH7-A5/GpH7-B3 variant T335_10E/GpL16-k0 (antibody, human IgG1, kappa)
heavy 1: not shown
heavy 2: not shown
light: B1 light
notes: heterodimerized; mutation in the B3 H chain only; also called He Ab T335_10E
B4: GpH7-B3 variant A330_04F/GpL16-k0 (antibody, human IgG1, kappa)
heavy: not shown
light: B1 light
notes: as for B2
B5: GpH7-B3 variant I336_03V/GpL16-k0 (antibody, human IgG1, kappa)
heavy: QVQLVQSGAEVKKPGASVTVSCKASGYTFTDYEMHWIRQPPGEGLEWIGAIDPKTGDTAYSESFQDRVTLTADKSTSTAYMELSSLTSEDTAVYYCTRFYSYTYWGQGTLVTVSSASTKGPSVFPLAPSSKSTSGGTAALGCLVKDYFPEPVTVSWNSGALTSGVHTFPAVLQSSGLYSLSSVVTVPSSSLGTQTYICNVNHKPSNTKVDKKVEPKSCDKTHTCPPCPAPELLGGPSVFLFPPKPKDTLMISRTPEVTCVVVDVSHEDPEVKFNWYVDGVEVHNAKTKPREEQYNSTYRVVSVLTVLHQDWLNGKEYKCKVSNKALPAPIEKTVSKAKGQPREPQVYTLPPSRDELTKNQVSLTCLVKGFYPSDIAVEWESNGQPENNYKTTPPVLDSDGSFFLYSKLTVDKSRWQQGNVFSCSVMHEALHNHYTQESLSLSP
light: B1 light
notes: as for B2
B6: GpH7-B3 variant H268_09D/GpL16-k0 (antibody, human IgG1, kappa)
heavy: not shown
light: B1 light
notes: as for B2
B7: GpH7-B3 variant K326_10E/GpL16-k0 (antibody, human IgG1, kappa)
heavy: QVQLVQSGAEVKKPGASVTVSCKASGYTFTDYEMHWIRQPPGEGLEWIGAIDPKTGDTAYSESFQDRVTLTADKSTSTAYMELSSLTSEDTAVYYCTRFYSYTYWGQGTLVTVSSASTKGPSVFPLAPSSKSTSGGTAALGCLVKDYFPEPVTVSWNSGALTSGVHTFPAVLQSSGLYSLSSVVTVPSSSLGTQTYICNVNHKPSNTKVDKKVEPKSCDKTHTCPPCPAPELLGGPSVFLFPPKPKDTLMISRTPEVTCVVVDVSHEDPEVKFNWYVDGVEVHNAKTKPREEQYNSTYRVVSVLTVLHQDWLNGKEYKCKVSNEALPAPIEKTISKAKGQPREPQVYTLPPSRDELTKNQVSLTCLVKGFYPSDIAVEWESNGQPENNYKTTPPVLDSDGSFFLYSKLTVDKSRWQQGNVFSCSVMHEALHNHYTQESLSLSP
light: B1 light
notes: as for B2
B8: GpH7-B3 variant I332_14T/GpL16-k0 (antibody, human IgG1, kappa)
heavy: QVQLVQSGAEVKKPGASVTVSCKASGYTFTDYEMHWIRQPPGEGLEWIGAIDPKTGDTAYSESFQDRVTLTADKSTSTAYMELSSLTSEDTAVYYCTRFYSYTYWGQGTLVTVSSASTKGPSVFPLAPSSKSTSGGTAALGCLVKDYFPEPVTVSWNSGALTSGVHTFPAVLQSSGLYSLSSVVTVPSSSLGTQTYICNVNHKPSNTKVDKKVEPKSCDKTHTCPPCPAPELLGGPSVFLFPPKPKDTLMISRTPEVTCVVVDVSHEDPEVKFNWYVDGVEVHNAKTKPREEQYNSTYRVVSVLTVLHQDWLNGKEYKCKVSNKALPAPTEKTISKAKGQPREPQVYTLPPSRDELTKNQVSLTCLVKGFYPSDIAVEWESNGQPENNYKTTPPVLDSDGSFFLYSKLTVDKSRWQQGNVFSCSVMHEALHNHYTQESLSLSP
light: B1 light
notes: as for B2
B9: GpH7-A5/GpH7-B3 variant Y296_20W/GpL16-k0 (antibody, human IgG1, kappa)
heavy 1: not shown
heavy 2: not shown
light: B1 light
notes: heterodimerized; mutation in the B3 H chain only; also called He Ab Y296_20W
B10: GpH7-B3 variant A330_20W/GpL16-k0 (antibody, human IgG1, kappa)
heavy: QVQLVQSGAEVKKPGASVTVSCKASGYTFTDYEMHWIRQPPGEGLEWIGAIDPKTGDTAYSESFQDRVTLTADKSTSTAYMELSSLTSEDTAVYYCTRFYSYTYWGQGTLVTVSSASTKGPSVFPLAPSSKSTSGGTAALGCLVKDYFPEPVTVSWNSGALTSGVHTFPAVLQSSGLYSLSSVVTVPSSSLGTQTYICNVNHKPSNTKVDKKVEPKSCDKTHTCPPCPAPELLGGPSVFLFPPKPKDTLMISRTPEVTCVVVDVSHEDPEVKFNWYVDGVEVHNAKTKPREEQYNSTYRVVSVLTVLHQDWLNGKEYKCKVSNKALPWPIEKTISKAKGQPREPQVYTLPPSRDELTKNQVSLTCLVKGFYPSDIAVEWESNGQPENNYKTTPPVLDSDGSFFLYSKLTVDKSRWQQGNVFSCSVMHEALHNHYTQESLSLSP
light: B1 light
notes: as for B2
B11: GpH7-A5/GpH7-B3 variant P331_20W/GpL16-k0 (antibody, human IgG1, kappa)
heavy 1: not shown
heavy 2: not shown
light: B1 light
notes: heterodimerized; mutation in the B3 H chain only; also called He Ab P331_20W
B12: GpH7-B3 variant K326_06M/GpL16-k0 (antibody, human IgG1, kappa)
heavy: not shown
light: B1 light
notes: as for B2
B13: GpH7-B3 variant K326_14T/GpL16-k0 (antibody, human IgG1, kappa)
heavy: not shown
light: B1 light
notes: as for B2
B14: GpH7-B3 variant I332_19Q/GpL16-k0 (antibody, human IgG1, kappa)
heavy: not shown
light: B1 light
notes: as for B2
B15: GpH7-B3 variant H268_13S/GpL16-k0 (antibody, human IgG1, kappa)
heavy: not shown
light: B1 light
notes: as for B2
B16: GpH7-B3 variant K326_03V/GpL16-k0 (antibody, human IgG1, kappa)
heavy: not shown
light: B1 light
notes: as for B2
B17: GpH7-B3 variant I332_13S/GpL16-k0 (antibody, human IgG1, kappa)
heavy: not shown
light: B1 light
notes: as for B2
B18: GpH7-B3 variant K326_08L/GpL16-k0 (antibody, human IgG1, kappa)
heavy: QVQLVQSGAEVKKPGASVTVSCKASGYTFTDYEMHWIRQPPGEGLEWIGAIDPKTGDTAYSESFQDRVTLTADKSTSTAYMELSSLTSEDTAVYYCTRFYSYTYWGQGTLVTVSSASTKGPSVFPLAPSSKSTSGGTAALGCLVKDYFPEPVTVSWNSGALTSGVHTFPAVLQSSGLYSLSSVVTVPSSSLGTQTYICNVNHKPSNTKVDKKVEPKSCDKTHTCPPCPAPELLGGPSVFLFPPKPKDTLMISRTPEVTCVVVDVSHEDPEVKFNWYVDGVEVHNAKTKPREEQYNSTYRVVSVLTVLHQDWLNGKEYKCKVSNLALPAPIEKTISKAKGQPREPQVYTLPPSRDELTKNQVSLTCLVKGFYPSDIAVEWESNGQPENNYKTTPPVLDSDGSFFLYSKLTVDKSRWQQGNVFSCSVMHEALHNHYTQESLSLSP
light: B1 light
notes: as for B2
B19: GpH7-B3 variant K326_04F/GpL16-k0 (antibody, human IgG1, kappa)
heavy: not shown
light: B1 light
notes: as for B2
B20: GpH7-A5/GpH7-B3 variant T335_07I/GpL16-k0 (antibody, human IgG1, kappa)
heavy 1: not shown
heavy 2: not shown
light: B1 light
notes: heterodimerized; mutation in the B3 H chain only; also called He Ab T335_07I
B21: GpH7-A5/GpH7-B3 variant S267_19Q/GpL16-k0 (antibody, human IgG1, kappa)
heavy 1: not shown
heavy 2: not shown
light: B1 light
notes: heterodimerized; mutation in the B3 H chain only; also called He Ab S267_19Q
B22: GpH7-B3 variant I332_01G/GpL16-k0 (antibody, human IgG1, kappa)
heavy: not shown
light: B1 light
notes: as for B2
B23: GpH7-A5/GpH7-B3 variant V266_06M/GpL16-k0 (antibody, human IgG1, kappa)
heavy 1: not shown
heavy 2: not shown
light: B1 light
notes: heterodimerized; mutation in the B3 H chain only; also called He Ab V266_06M
B24: GpH7-B3 variant I336_10E/GpL16-k0 (antibody, human IgG1, kappa)
heavy: not shown
light: B1 light
notes: as for B2
B25: GpH7-A5/GpH7-B3 variant P238_09D/GpL16-k0 (antibody, human IgG1, kappa)
heavy 1: not shown
heavy 2: not shown
light: B1 light
notes: heterodimerized; mutation in the B3 H chain only; also called He Ab P238_09D
B26: GpH7-B3 variant A330_08L/GpL16-k0 (antibody, human IgG1, kappa)
heavy: not shown
light: B1 light
notes: as for B2
B27: GpH7-B3 variant H268_10E/GpL16-k0 (antibody, human IgG1, kappa)
heavy: not shown
light: B1 light
notes: as for B2
B28: GpH7-B3 variant I336_18N/GpL16-k0 (antibody, human IgG1, kappa)
heavy: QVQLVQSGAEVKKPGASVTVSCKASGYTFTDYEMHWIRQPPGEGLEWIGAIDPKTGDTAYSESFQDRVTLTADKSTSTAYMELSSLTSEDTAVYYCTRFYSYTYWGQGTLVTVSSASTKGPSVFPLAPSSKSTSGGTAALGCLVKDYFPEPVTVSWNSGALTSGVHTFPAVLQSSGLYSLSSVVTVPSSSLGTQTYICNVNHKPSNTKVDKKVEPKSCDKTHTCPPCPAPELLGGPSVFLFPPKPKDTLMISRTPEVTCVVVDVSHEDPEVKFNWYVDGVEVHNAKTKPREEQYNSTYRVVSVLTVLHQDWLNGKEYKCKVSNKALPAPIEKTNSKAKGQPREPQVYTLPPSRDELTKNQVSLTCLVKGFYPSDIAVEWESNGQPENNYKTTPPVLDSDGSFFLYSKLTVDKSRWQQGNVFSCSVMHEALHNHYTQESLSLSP
light: B1 light
notes: as for B2
B29: GpH7-B3 variant I336_09D/GpL16-k0 (antibody, human IgG1, kappa)
heavy: not shown
light: B1 light
notes: as for B2
B30: GpH7-A5/GpH7-B3 variant P331_16H/GpL16-k0 (antibody, human IgG1, kappa)
heavy 1: not shown
heavy 2: not shown
light: B1 light
notes: heterodimerized; mutation in the B3 H chain only; also called He Ab P331_16H
B31: GpH7-A5/GpH7-B3 variant L328_02A/GpL16-k0 (antibody, human IgG1, kappa)
heavy 1: not shown
heavy 2: not shown
light: B1 light
notes: heterodimerized; mutation in the B3 H chain only; also called He Ab L328_02A
B32: GpH7-B3 variant I332_15Y/GpL16-k0 (antibody, human IgG1, kappa)
heavy: not shown
light: B1 light
notes: as for B2
B33: GpH7-A5/GpH7-B3 variant S337_16H/GpL16-k0 (antibody, human IgG1, kappa)
heavy 1: not shown
heavy 2: not shown
light: B1 light
notes: heterodimerized; mutation in the B3 H chain only; also called He Ab S337_16H
B34: GpH7-A5/GpH7-B3 variant P331_15Y/GpL16-k0 (antibody, human IgG1, kappa)
heavy 1: not shown
heavy 2: not shown
light: B1 light
notes: heterodimerized; mutation in the B3 H chain only; also called He Ab P331_15Y
B35: GpH7-A5/GpH7-B3 variant P238_15Y/GpL16-k0 (antibody, human IgG1, kappa)
heavy 1: not shown
heavy 2: not shown
light: B1 light
notes: heterodimerized; mutation in the B3 H chain only; also called He Ab P238_15Y
B36: GpH7-A5/GpH7-B3 variant S324_06M/GpL16-k0 (antibody, human IgG1, kappa)
heavy 1: not shown
heavy 2: not shown
light: B1 light
notes: heterodimerized; mutation in the B3 H chain only; also called He Ab S324_06M
B37: GpH7-A5/GpH7-B3 variant S267_06M/GpL16-k0 (antibody, human IgG1, kappa)
heavy 1: not shown
heavy 2: not shown
light: B1 light
notes: heterodimerized; mutation in the B3 H chain only; also called He Ab S267_06M
B38: GpH7-A5/GpH7-B3 variant S239_10E/GpL16-k0 (antibody, human IgG1, kappa)
heavy 1: not shown
heavy 2: not shown
light: B1 light
notes: heterodimerized; mutation in the B3 H chain only; also called He Ab S239_10E
B39: GpH7-B3 variant I332_10E/GpL16-k0 (antibody, human IgG1, kappa)
heavy: not shown
light: B1 light
notes: as for B2
B40: GpH7-B3 variant K326_15Y/GpL16-k0 (antibody, human IgG1, kappa)
heavy: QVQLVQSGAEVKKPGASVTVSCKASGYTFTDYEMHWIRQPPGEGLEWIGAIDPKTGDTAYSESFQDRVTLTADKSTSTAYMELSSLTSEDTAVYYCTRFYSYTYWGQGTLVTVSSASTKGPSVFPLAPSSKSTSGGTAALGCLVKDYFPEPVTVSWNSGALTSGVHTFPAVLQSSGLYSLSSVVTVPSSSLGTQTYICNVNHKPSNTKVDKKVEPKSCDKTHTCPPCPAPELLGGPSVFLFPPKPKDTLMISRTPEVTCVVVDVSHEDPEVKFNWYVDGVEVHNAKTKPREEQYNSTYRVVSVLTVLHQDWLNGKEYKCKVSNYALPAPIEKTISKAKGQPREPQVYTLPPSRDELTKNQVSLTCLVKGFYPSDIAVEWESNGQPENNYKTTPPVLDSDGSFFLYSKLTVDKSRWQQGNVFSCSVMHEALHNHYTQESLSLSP
light: B1 light
notes: as for B2
B41: GpH7-B3 variant K326_09D/GpL16-k0 (antibody, human IgG1, kappa)
heavy: not shown
light: B1 light
notes: as for B2
B42: GpH7-A5/GpH7-B3 variant L328_13S/GpL16-k0 (antibody, human IgG1, kappa)
heavy 1: not shown
heavy 2: not shown
light: B1 light
notes: heterodimerized; mutation in the B3 H chain only; also called He Ab L328_13S
B43: GpH7-B3 variant I336_06M/GpL16-k0 (antibody, human IgG1, kappa)
heavy: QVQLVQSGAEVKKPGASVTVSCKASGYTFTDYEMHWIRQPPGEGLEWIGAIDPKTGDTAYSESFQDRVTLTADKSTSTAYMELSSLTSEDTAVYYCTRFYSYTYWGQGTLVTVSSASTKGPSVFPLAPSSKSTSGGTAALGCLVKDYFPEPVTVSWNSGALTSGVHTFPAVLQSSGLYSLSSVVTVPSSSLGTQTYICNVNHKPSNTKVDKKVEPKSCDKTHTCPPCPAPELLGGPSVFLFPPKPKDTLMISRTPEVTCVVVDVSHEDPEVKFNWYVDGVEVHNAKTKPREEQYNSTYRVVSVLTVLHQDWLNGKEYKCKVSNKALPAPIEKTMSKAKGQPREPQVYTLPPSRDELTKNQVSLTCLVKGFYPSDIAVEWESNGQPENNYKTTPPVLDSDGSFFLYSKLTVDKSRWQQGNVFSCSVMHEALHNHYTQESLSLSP
light: B1 light
notes: as for B2
B44: GpH7-B3 variant I332_02A/GpL16-k0 (antibody, human IgG1, kappa)
heavy: not shown
light: B1 light
notes: as for B2
B45: GpH7-B3 variant I336_02A/GpL16-k0 (antibody, human IgG1, kappa)
heavy: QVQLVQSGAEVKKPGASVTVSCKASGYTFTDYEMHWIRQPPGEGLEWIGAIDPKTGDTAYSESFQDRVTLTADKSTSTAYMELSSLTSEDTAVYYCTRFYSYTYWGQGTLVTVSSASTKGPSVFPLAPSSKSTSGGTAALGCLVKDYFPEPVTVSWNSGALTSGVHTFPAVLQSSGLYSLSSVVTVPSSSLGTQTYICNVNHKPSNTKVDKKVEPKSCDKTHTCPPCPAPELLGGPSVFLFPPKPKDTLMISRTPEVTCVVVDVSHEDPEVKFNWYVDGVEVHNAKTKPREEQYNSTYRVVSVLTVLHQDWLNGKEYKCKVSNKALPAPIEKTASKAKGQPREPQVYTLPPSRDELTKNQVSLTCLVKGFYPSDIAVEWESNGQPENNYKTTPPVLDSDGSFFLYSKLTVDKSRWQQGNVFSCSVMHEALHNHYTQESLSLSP
light: B1 light
notes: as for B2
B46: GpH7-A5/GpH7-B3 variant S239_03V/GpL16-k0 (antibody, human IgG1, kappa)
heavy 1: not shown
heavy 2: not shown
light: B1 light
notes: heterodimerized; mutation in the B3 H chain only; also called He Ab S239_03V
B47: GpH7-A5/GpH7-B3 variant T335_15Y/GpL16-k0 (antibody, human IgG1, kappa)
heavy 1: not shown
heavy 2: not shown
light: B1 light
notes: heterodimerized; mutation in the B3 H chain only; also called He Ab T335_15Y
B48: GpH7-B3 variant I336_14T/GpL16-k0 (antibody, human IgG1, kappa)
heavy: not shown
light: B1 light
notes: as for B2
B49: GpH7-B3 variant I332_09D/GpL16-k0 (antibody, human IgG1, kappa)
heavy: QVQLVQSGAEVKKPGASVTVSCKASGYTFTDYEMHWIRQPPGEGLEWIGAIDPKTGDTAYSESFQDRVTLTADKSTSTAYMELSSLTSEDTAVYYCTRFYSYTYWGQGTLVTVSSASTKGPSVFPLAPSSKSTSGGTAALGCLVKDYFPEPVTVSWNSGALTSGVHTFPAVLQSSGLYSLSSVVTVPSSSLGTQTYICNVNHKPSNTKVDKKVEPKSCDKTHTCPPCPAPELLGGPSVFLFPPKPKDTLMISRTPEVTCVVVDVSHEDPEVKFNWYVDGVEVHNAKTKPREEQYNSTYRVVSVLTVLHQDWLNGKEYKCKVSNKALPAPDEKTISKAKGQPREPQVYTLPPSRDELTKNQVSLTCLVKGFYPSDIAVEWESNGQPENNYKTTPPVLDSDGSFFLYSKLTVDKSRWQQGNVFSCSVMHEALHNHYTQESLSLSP
light: B1 light
notes: as for B2
B50: GpH7-B3 variant I336_13S/GpL16-k0 (antibody, human IgG1, kappa)
heavy: not shown
light: B1 light
notes: as for B2
B51: GpH7-B3 variant K326_07I/GpL16-k0 (antibody, human IgG1, kappa)
heavy: not shown
light: B1 light
notes: as for B2
B52: GpH7-A5/GpH7-B3 variant P238_04F/GpL16-k0 (antibody, human IgG1, kappa)
heavy 1: not shown
heavy 2: not shown
light: B1 light
notes: heterodimerized; mutation in the B3 H chain only; also called He Ab P238_04F
B53: GpH7-B3 variant E333_16H/GpL16-k0 (antibody, human IgG1, kappa)
heavy: not shown
light: B1 light
notes: as for B2

Experiments:
[1] = target: T1, FcγRIIb extracellular domain with …; experiment: SPR (Biacore), captured antibody, FcγRIIb analyte; binding relative to GpH7-A5/GpH7-B3/GpL16-k0 = 100
[2] = target: T2, FcγRIIIa extracellular domain with C-terminal His tag (human, UniProt P08637 17-208); experiment: SPR, relative to GpH7-B3/GpL16-k0
T2 construct: extracellular domain; also called FcgRIIIa; 3a
T2 sequence (P08637 17-208): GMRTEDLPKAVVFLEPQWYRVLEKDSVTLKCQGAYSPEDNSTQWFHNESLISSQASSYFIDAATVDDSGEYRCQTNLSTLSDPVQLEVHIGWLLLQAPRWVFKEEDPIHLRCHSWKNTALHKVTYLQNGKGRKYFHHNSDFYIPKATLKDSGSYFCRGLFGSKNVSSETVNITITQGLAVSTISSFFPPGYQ

Binder | He/Con_2b [1] | Ho/Con_3a [2]
B1 | 147 % of control | 
B2 |  | 104 % of control (=100)
B3 | 108 % of control | 
B4 |  | 174 % of control (=100)
B5 |  | 110 % of control (=100)
B6 |  | 220 % of control (=100)
B7 |  | 157 % of control (=100)
B8 |  | 138 % of control (=100)
B9 | 103 % of control | 
B10 |  | 118 % of control (=100)
B11 | 111 % of control | 
B12 |  | 129 % of control (=100)
B13 |  | 147 % of control (=100)
B14 |  | 118 % of control (=100)
B15 |  | 130 % of control (=100)
B16 |  | 137 % of control (=100)
B17 |  | 112 % of control (=100)
B18 |  | 114 % of control (=100)
B19 |  | 103 % of control (=100)
B20 | 106 % of control | 
B21 | 218 % of control | 
B22 |  | 104 % of control (=100)
B23 | 251 % of control | 
B24 |  | 130 % of control (=100)
B25 | 221 % of control | 
B26 |  | 138 % of control (=100)
B27 |  | 2060 % of control (=100)

Binder | He/Con_2b [1] | Ho/Con_3a [2]
B28 |  | 101 % of control (=100)
B29 |  | 111 % of control (=100)
B30 | 116 % of control | 
B31 | 144 % of control | 
B32 |  | 106 % of control (=100)
B33 | 105 % of control | 
B34 | 114 % of control | 
B35 | 218 % of control | 
B36 | 112 % of control | 
B37 | 210 % of control | 
B38 | 181 % of control | 
B39 |  | 278 % of control (=100)
B40 |  | 115 % of control (=100)
B41 |  | 163 % of control (=100)
B42 | 149 % of control | 
B43 |  | 107 % of control (=100)
B44 |  | 114 % of control (=100)
B45 |  | 104 % of control (=100)
B46 | 108 % of control | 
B47 | 108 % of control | 
B48 |  | 123 % of control (=100)
B49 |  | 255 % of control (=100)
B50 |  | 119 % of control (=100)
B51 |  | 134 % of control (=100)
B52 | 312 % of control | 
B53 |  | 111 % of control (=100)
